The text below walks through data of US20240270846A1 (published 2024).

This test deals with T1, CD3 epsilon homodimer protein (UniProt P07766 23-126).
T1 construct: also called CD3 (CD3 epsilon)
In words: SPR Biacore T200, CD3 epsilon homodimer immobilised on CM4, one-arm antibody as analyte, single-cycle kinetics; reference unaltered GLS3000 antibody.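 Also: CD3 epsilon homodimer attached to the CM4 chip via amine coupling, measured at 25 °C with HBS-EP+ as running buffer.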

T1 sequence (P07766 23-126): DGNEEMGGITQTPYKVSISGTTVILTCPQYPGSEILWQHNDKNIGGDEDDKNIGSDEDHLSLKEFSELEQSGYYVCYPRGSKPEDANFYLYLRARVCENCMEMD
Procedure: An appropriate amount of CD3 epsilon homodimer protein was immobilized onto Sensor chip CM4 (GE Healthcare Japan Corp.) by the amine coupling method. Then, the antibody having an appropriate concentration was injected thereto as an analyte and allowed to interact with the CD3 epsilon homodimer protein on the sensor chip. Then, the sensor chip was regenerated by the injection of 10 mmol/L glycine-HCl (pH 1.5). The assay was conducted at 25 degrees C., and HBS-EP+(GE Healthcare Japan Corp.) was used as a running buffer. […] Each parameter was calculated using Biacore T200 Evaluation Software (GE Healthcare Japan Corp.).
Specifically, when the amount of the GLS3000-containing antibody bound was defined as X and the amount of the L chain one-amino acid altered form bound was defined as Y, a value of Z (ratio of amounts bound)=Y/X was used.

B1: GLS3000 G89W one-amino acid altered one-arm antibody (CE115HA000-pE22Hh / Kn010G3 / GLS3000 G89W-kappa) (antibody, human IgG1, kappa, L234A L235A, N297A, name in Kabat numbering)
heavy: QVQLVESGGGVVQPGRSLRLSCAASGFTFSNAWMHWVRQAPGKGLEWVAQIKAKSNNYATYYAESVKGRFTISRDDSKNSLYLQMNSLKTEDTAVYYCRYVHYGAYYGVDAWGQGTTVTVSSASTKGPSVFPLAPSSKSTSGGTAALGCLVKDYFPEPVTVSWNSGALTSGVHTFPAVLQSSGLYSLSSVVTVPSSSLGTQTYICNVNHKPSNTKVDKKVEPKSCDKTHTCPPCPAPEAAGGPSVFLFPPKPKDTLMISRTPEVTCVVVDVSHEDPEVKFNWYVDGVEVHNAKTKPREEQYASTYRVVSVLTVLHQDWLNGKEYKCKVSNKALPAPIEKTISKAKGQPREPQVYTLPPSRCELTKNQVSLSCAVKGFYPSDIAVEWESNGQPENNYKTTPPVLDSDGSFFLVSKLTVDKSRWQQGNVFSCSVMHEALHNHYTQKSLSLSPDYKDDDDK
chain: EPKSSDKTHTCPPCPAPELLGGPSVFLFPPKPKDTLMISRTPEVTCVVVDVSHEDPEVKFNWYVDGVEVHNAKTKPREEQYNSTYRVVSVLTVLHQDWLNGKEYKCKVSNKALPAPIEKTISKAKGQPREPQVCTLPPSRDELTKNQVSLWCLVKGFYPSDIAVEWESNGQPENNYKTTPPVLDSDGSFFLYSKLTVDKSRWQQGNVFSCSVMHEALHNRYTQKSLSLSP
light: DIVMTQSPLSLPVTPGEPASISCRSSQSLVHSNRNTYLHWYQQKPGQAPRLLIYKVSNRFSGVPDRFSGSGSGTDFTLKISRVEAEDVGVYYCWQGTQVPYTFGQGTKLEIKRTVAAPSVFIFPPSDEQLKSGTASVVCLLNNFYPREAKVQWKVDNALQSGNSQESVTEQDSKDSTYSLSSTLTLSKADYEKHKVYACEVTHQGLSSPVTKSFNRGEC
notes: One-arm antibody; substitution position in Kabat numbering; also called L chain altered form, Kabat 89 G to W
Consider B1, for which the “dissociation constant KD(M) ratio of L chain altered form to GLS3000” value (from here on “dissociation constant KD(M) ratio”) was determined as 2.2 ratio.

B2: GLS3000 G89Y one-amino acid altered one-arm antibody (CE115HA000-pE22Hh / Kn010G3 / GLS3000 G89Y-kappa) (antibody, human IgG1, kappa, L234A L235A, N297A, name in Kabat numbering)
heavy: QVQLVESGGGVVQPGRSLRLSCAASGFTFSNAWMHWVRQAPGKGLEWVAQIKAKSNNYATYYAESVKGRFTISRDDSKNSLYLQMNSLKTEDTAVYYCRYVHYGAYYGVDAWGQGTTVTVSSASTKGPSVFPLAPSSKSTSGGTAALGCLVKDYFPEPVTVSWNSGALTSGVHTFPAVLQSSGLYSLSSVVTVPSSSLGTQTYICNVNHKPSNTKVDKKVEPKSCDKTHTCPPCPAPEAAGGPSVFLFPPKPKDTLMISRTPEVTCVVVDVSHEDPEVKFNWYVDGVEVHNAKTKPREEQYASTYRVVSVLTVLHQDWLNGKEYKCKVSNKALPAPIEKTISKAKGQPREPQVYTLPPSRCELTKNQVSLSCAVKGFYPSDIAVEWESNGQPENNYKTTPPVLDSDGSFFLVSKLTVDKSRWQQGNVFSCSVMHEALHNHYTQKSLSLSPDYKDDDDK
chain: EPKSSDKTHTCPPCPAPELLGGPSVFLFPPKPKDTLMISRTPEVTCVVVDVSHEDPEVKFNWYVDGVEVHNAKTKPREEQYNSTYRVVSVLTVLHQDWLNGKEYKCKVSNKALPAPIEKTISKAKGQPREPQVCTLPPSRDELTKNQVSLWCLVKGFYPSDIAVEWESNGQPENNYKTTPPVLDSDGSFFLYSKLTVDKSRWQQGNVFSCSVMHEALHNRYTQKSLSLSP
light: DIVMTQSPLSLPVTPGEPASISCRSSQSLVHSNRNTYLHWYQQKPGQAPRLLIYKVSNRFSGVPDRFSGSGSGTDFTLKISRVEAEDVGVYYCYQGTQVPYTFGQGTKLEIKRTVAAPSVFIFPPSDEQLKSGTASVVCLLNNFYPREAKVQWKVDNALQSGNSQESVTEQDSKDSTYSLSSTLTLSKADYEKHKVYACEVTHQGLSSPVTKSFNRGEC
notes: One-arm antibody; substitution position in Kabat numbering; also called L chain altered form, Kabat 89 G to Y
Take B2: the “dissociation constant KD(M) ratio” value stood at 1.12 ratio.

B3: GLS3000 G91T one-amino acid altered one-arm antibody (CE115HA000-pE22Hh / Kn010G3 / GLS3000 G91T-kappa) (antibody, human IgG1, kappa, L234A L235A, N297A, name in Kabat numbering)
heavy: QVQLVESGGGVVQPGRSLRLSCAASGFTFSNAWMHWVRQAPGKGLEWVAQIKAKSNNYATYYAESVKGRFTISRDDSKNSLYLQMNSLKTEDTAVYYCRYVHYGAYYGVDAWGQGTTVTVSSASTKGPSVFPLAPSSKSTSGGTAALGCLVKDYFPEPVTVSWNSGALTSGVHTFPAVLQSSGLYSLSSVVTVPSSSLGTQTYICNVNHKPSNTKVDKKVEPKSCDKTHTCPPCPAPEAAGGPSVFLFPPKPKDTLMISRTPEVTCVVVDVSHEDPEVKFNWYVDGVEVHNAKTKPREEQYASTYRVVSVLTVLHQDWLNGKEYKCKVSNKALPAPIEKTISKAKGQPREPQVYTLPPSRCELTKNQVSLSCAVKGFYPSDIAVEWESNGQPENNYKTTPPVLDSDGSFFLVSKLTVDKSRWQQGNVFSCSVMHEALHNHYTQKSLSLSPDYKDDDDK
chain: EPKSSDKTHTCPPCPAPELLGGPSVFLFPPKPKDTLMISRTPEVTCVVVDVSHEDPEVKFNWYVDGVEVHNAKTKPREEQYNSTYRVVSVLTVLHQDWLNGKEYKCKVSNKALPAPIEKTISKAKGQPREPQVCTLPPSRDELTKNQVSLWCLVKGFYPSDIAVEWESNGQPENNYKTTPPVLDSDGSFFLYSKLTVDKSRWQQGNVFSCSVMHEALHNRYTQKSLSLSP
light: DIVMTQSPLSLPVTPGEPASISCRSSQSLVHSNRNTYLHWYQQKPGQAPRLLIYKVSNRFSGVPDRFSGSGSGTDFTLKISRVEAEDVGVYYCGQTTQVPYTFGQGTKLEIKRTVAAPSVFIFPPSDEQLKSGTASVVCLLNNFYPREAKVQWKVDNALQSGNSQESVTEQDSKDSTYSLSSTLTLSKADYEKHKVYACEVTHQGLSSPVTKSFNRGEC
notes: One-arm antibody; substitution position in Kabat numbering; also called L chain altered form, Kabat 91 G to T
With B3, the “dissociation constant KD(M) ratio” value worked out at 39.9 ratio.

B4: GLS3000 G91Y one-amino acid altered one-arm antibody (CE115HA000-pE22Hh / Kn010G3 / GLS3000 G91Y-kappa) (antibody, human IgG1, kappa, L234A L235A, N297A, name in Kabat numbering)
heavy: QVQLVESGGGVVQPGRSLRLSCAASGFTFSNAWMHWVRQAPGKGLEWVAQIKAKSNNYATYYAESVKGRFTISRDDSKNSLYLQMNSLKTEDTAVYYCRYVHYGAYYGVDAWGQGTTVTVSSASTKGPSVFPLAPSSKSTSGGTAALGCLVKDYFPEPVTVSWNSGALTSGVHTFPAVLQSSGLYSLSSVVTVPSSSLGTQTYICNVNHKPSNTKVDKKVEPKSCDKTHTCPPCPAPEAAGGPSVFLFPPKPKDTLMISRTPEVTCVVVDVSHEDPEVKFNWYVDGVEVHNAKTKPREEQYASTYRVVSVLTVLHQDWLNGKEYKCKVSNKALPAPIEKTISKAKGQPREPQVYTLPPSRCELTKNQVSLSCAVKGFYPSDIAVEWESNGQPENNYKTTPPVLDSDGSFFLVSKLTVDKSRWQQGNVFSCSVMHEALHNHYTQKSLSLSPDYKDDDDK
chain: EPKSSDKTHTCPPCPAPELLGGPSVFLFPPKPKDTLMISRTPEVTCVVVDVSHEDPEVKFNWYVDGVEVHNAKTKPREEQYNSTYRVVSVLTVLHQDWLNGKEYKCKVSNKALPAPIEKTISKAKGQPREPQVCTLPPSRDELTKNQVSLWCLVKGFYPSDIAVEWESNGQPENNYKTTPPVLDSDGSFFLYSKLTVDKSRWQQGNVFSCSVMHEALHNRYTQKSLSLSP
light: DIVMTQSPLSLPVTPGEPASISCRSSQSLVHSNRNTYLHWYQQKPGQAPRLLIYKVSNRFSGVPDRFSGSGSGTDFTLKISRVEAEDVGVYYCGQYTQVPYTFGQGTKLEIKRTVAAPSVFIFPPSDEQLKSGTASVVCLLNNFYPREAKVQWKVDNALQSGNSQESVTEQDSKDSTYSLSSTLTLSKADYEKHKVYACEVTHQGLSSPVTKSFNRGEC
notes: One-arm antibody; substitution position in Kabat numbering; also called L chain altered form, Kabat 91 G to Y
As for B4, the “dissociation constant KD(M) ratio” value turned out to be 33.8 ratio.

B5: GLS3000 K74T one-amino acid altered one-arm antibody (CE115HA000-pE22Hh / Kn010G3 / GLS3000 K74T-kappa) (antibody, human IgG1, kappa, L234A L235A, N297A, name in Kabat numbering)
heavy: QVQLVESGGGVVQPGRSLRLSCAASGFTFSNAWMHWVRQAPGKGLEWVAQIKAKSNNYATYYAESVKGRFTISRDDSKNSLYLQMNSLKTEDTAVYYCRYVHYGAYYGVDAWGQGTTVTVSSASTKGPSVFPLAPSSKSTSGGTAALGCLVKDYFPEPVTVSWNSGALTSGVHTFPAVLQSSGLYSLSSVVTVPSSSLGTQTYICNVNHKPSNTKVDKKVEPKSCDKTHTCPPCPAPEAAGGPSVFLFPPKPKDTLMISRTPEVTCVVVDVSHEDPEVKFNWYVDGVEVHNAKTKPREEQYASTYRVVSVLTVLHQDWLNGKEYKCKVSNKALPAPIEKTISKAKGQPREPQVYTLPPSRCELTKNQVSLSCAVKGFYPSDIAVEWESNGQPENNYKTTPPVLDSDGSFFLVSKLTVDKSRWQQGNVFSCSVMHEALHNHYTQKSLSLSPDYKDDDDK
chain: EPKSSDKTHTCPPCPAPELLGGPSVFLFPPKPKDTLMISRTPEVTCVVVDVSHEDPEVKFNWYVDGVEVHNAKTKPREEQYNSTYRVVSVLTVLHQDWLNGKEYKCKVSNKALPAPIEKTISKAKGQPREPQVCTLPPSRDELTKNQVSLWCLVKGFYPSDIAVEWESNGQPENNYKTTPPVLDSDGSFFLYSKLTVDKSRWQQGNVFSCSVMHEALHNRYTQKSLSLSP
light: DIVMTQSPLSLPVTPGEPASISCRSSQSLVHSNRNTYLHWYQQKPGQAPRLLIYKVSNRFSGVPDRFSGSGSGTDFTLTISRVEAEDVGVYYCGQGTQVPYTFGQGTKLEIKRTVAAPSVFIFPPSDEQLKSGTASVVCLLNNFYPREAKVQWKVDNALQSGNSQESVTEQDSKDSTYSLSSTLTLSKADYEKHKVYACEVTHQGLSSPVTKSFNRGEC
notes: One-arm antibody; substitution position in Kabat numbering; also called L chain altered form, Kabat 74 K to T
In the case of B5, the “dissociation constant KD(M) ratio” value was 0.85 ratio.

B6: GLS3000 G91P one-amino acid altered one-arm antibody (CE115HA000-pE22Hh / Kn010G3 / GLS3000 G91P-kappa) (antibody, human IgG1, kappa, L234A L235A, N297A, name in Kabat numbering)
heavy: QVQLVESGGGVVQPGRSLRLSCAASGFTFSNAWMHWVRQAPGKGLEWVAQIKAKSNNYATYYAESVKGRFTISRDDSKNSLYLQMNSLKTEDTAVYYCRYVHYGAYYGVDAWGQGTTVTVSSASTKGPSVFPLAPSSKSTSGGTAALGCLVKDYFPEPVTVSWNSGALTSGVHTFPAVLQSSGLYSLSSVVTVPSSSLGTQTYICNVNHKPSNTKVDKKVEPKSCDKTHTCPPCPAPEAAGGPSVFLFPPKPKDTLMISRTPEVTCVVVDVSHEDPEVKFNWYVDGVEVHNAKTKPREEQYASTYRVVSVLTVLHQDWLNGKEYKCKVSNKALPAPIEKTISKAKGQPREPQVYTLPPSRCELTKNQVSLSCAVKGFYPSDIAVEWESNGQPENNYKTTPPVLDSDGSFFLVSKLTVDKSRWQQGNVFSCSVMHEALHNHYTQKSLSLSPDYKDDDDK
chain: EPKSSDKTHTCPPCPAPELLGGPSVFLFPPKPKDTLMISRTPEVTCVVVDVSHEDPEVKFNWYVDGVEVHNAKTKPREEQYNSTYRVVSVLTVLHQDWLNGKEYKCKVSNKALPAPIEKTISKAKGQPREPQVCTLPPSRDELTKNQVSLWCLVKGFYPSDIAVEWESNGQPENNYKTTPPVLDSDGSFFLYSKLTVDKSRWQQGNVFSCSVMHEALHNRYTQKSLSLSP
light: DIVMTQSPLSLPVTPGEPASISCRSSQSLVHSNRNTYLHWYQQKPGQAPRLLIYKVSNRFSGVPDRFSGSGSGTDFTLKISRVEAEDVGVYYCGQPTQVPYTFGQGTKLEIKRTVAAPSVFIFPPSDEQLKSGTASVVCLLNNFYPREAKVQWKVDNALQSGNSQESVTEQDSKDSTYSLSSTLTLSKADYEKHKVYACEVTHQGLSSPVTKSFNRGEC
notes: One-arm antibody; substitution position in Kabat numbering; also called L chain altered form, Kabat 91 G to P
Turning to B6, the “dissociation constant KD(M) ratio” value is 23.1 ratio.
